± gives the standard deviation.
Assay: protein stability index of a GFP-peptide fusion (GPS, HEK-293T) (PSI 1-6); higher = more stable
Conditions: c terminus: a fixed tail appended
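Note: 24-mer peptide tiles fused after GFP, lentivirally expressed, FACS-sorted into six equal bins by GFP/DsRed ratio, decoded by Illumina sequencing, PSI is the read-weighted mean bin number.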

Row | Sequence | protein stability index (treatment: DMSO) | protein stability index (treatment: MLN4924 1 uM, 8 h)
1 | TPDQKYSMDNTPHTPTPFKNALEK [MYBL2] | 5 ± 0.2 | 5.22 ± 0.2
2 | AHRAILVARCEVMAAMFNGNYMEA [RHOBTB3] | 2.54 ± 0.95 | 2.08 ± 0.97
3 | YLNHVRAASPQDLAGGYTSSLACH [MNAT1] | 2.85 ± 0.39 | 2.95 ± 0.34
4 | IQNAHKNSTGSGRGKKLMVLTEPI [TPRG1] | 3.89 ± 0.24 | 3.66 ± 0.28
5 | DLYNWEVAIFGPPNTLYEGGYFKA [UBE2R2] | 2.66 ± 0.4 | 2.32 ± 0.37
6 | SLVADNCVTLVWRMPDEDSKIDHY [FSD1] | 2.62 ± 0.15 | 2.94 ± 0.34
7 | LAFPLKHPDSWRAYPFYWAWLPQA [PI4K2A] | 2.42 ± 0.65 | 2.48 ± 0.84
8 | HGEEEVETFAFQAEIAQLMSLIIN [HSP90AB1] | 2.58 ± 0.33 | 2.95 ± 0.28
9 | KTHTGEKPHRCHNCGKSFSRLTAL [ZNF449] | 2.47 ± 0.12 | 2.67 ± 0.45
10 | IAAPHAGANVKPRNSTPPSLARNP [ZC2HC1A] | 4.35 ± 0.12 | 4.48 ± 0.25
11 | VRELVDKATNVVMNYSEIESKVRE [CLINT1] | 4 ± 0.38 | 3.8 ± 0.37
12 | STVQILTEGFPPGGGNARATGMFL [ZFYVE21] | 2.16 ± 0.19 | 2.27 ± 0.35
13 | AQTIPTKDRLEGLLAFKEKRPPRY [AUH] | 3.73 ± 0.24 | 4.06 ± 0.24
14 | PPGPDRLPSNLVQYYDDEKKTWKI [KLHL14] | 4.87 ± 0.082 | 4.7 ± 0.33
15 | AVCMFLASKLKETSPLTAEKLCIY [CCND2] | 2.84 ± 0.61 | 2.44 ± 0.56
16 | DWMAAMFGGPFVESSTREVVFPYT [RHOBTB2] | 2.23 ± 0.3 | 2.04 ± 0.47
17 | KMVPRYDLNRHLDEMCANNDFVQV [FAN1] | 2.81 ± 0.15 | 2.8 ± 0.46
18 | PIMSGQGLAGFFASVAMICAIASG [SLC29A1] | 3.12 ± 0.21 | 3.13 ± 0.48
19 | ETIKCVVVGDNAVGKTRLICARAC [RHOBTB1] | 2.39 ± 0.2 | 2.44 ± 0.21
20 | AAMEGATLDQTTSEEAPGGTELIQ [HDAC6] | 5.64 ± 0.12 | 5.47 ± 0.22
21 | ARIRSHSWLESCIVGWRCRVGQWV [GMPPB] | 2.27 ± 0.3 | 2.262 ± 0.009
22 | ATNSSWVVVFKALVTTHHLMVHGN [SNAP91] | 3.43 ± 0.31 | 3.4 ± 0.28

Row | Sequence | protein stability index (treatment: DMSO) | protein stability index (treatment: MLN4924 1 uM, 8 h)
23 | RAGEGFIICYSITDRRSFHEVREF [RIT1] | 3.04 ± 0.81 | 2.48 ± 0.71
24 | MAERLEDSVLKGMQAASSKMVSAE [SDE2] | 4.54 ± 0.36 | 4.55 ± 0.24
25 | AAIGVTTSPVLPSLIQLLGRNFIL [HACD3] | 2.67 ± 0.19 | 2.55 ± 0.6
26 | TSPVLPSLIQLLGRNFILFIIFGT [HACD3] | 3.11 ± 0.48 | 2.98 ± 0.4
27 | LLARPGTGEHREFKLDKKYQRPQD [FBF1] | 3.95 ± 0.41 | 4.16 ± 0.3
28 | ESTTKESSEASQLEDAAGGDSASE [FBXO34] | 5.61 ± 0.34 | 5.71 ± 0.12
29 | SSKAHTSRFISANLPCNKFKNRLV [PTPRD] | 2.58 ± 0.35 | 2.59 ± 0.26
30 | RIRIDDEPANLDILDTAGQAEFTA [RIT1] | 4.62 ± 0.23 | 4.77 ± 0.11
31 | SPSSDLDTDAEGDDFELLDQSELS [RETREG3] | 5.56 ± 0.13 | 5.38 ± 0.12
32 | LVNHVNIRLQAELEEGENPVPAFQ [SMG5] | 4.04 ± 0.091 | 4.07 ± 0.17
33 | FHGWKYMFGLVIPLGVLQAIAMYF [SLC2A12] | 2.31 ± 0.46 | 2.6 ± 0.56
34 | LLDGLARRVGILGEELADVGGVLR [SCARA5] | 2.64 ± 0.2 | 2.72 ± 0.4
35 | YSPSQYALQYAGDGSVLLIPRTMA [NFE2L1] | 2.11 ± 0.22 | 2.26 ± 0.22
36 | RKVKSTITLDGGVLVHVQKWDGKS [FABP4] | 3 ± 0.23 | 3.15 ± 0.52
37 | ETVQTWIELLTGETWNPFKLQYQL [GOLPH3L] | 2.65 ± 0.6 | 2.74 ± 0.71
38 | MTLEEFSAGEQKTERMDKVGDALE [GADD45A] | 5.28 ± 0.15 | 5.36 ± 0.18
39 | WRDSKGKDKEYAEIIRKQVSATKA [UBE2R2] | 3.9 ± 0.34 | 4.07 ± 0.46
40 | KIDDLMQEITEQQDIAQEISEAFS [CHMP4C] | 4.75 ± 0.35 | 4.67 ± 0.28
41 | KPDGTVEQIGHILVSWLPRLNAYR [NET1] | 2.21 ± 0.52 | 2.1 ± 0.1
42 | AMFTGGMKEQDLMCIKLHGVSKVG [KLHL13] | 2.54 ± 0.42 | 2.58 ± 0.33
43 | SLYILRGSARYDFSHEILRDEESF [ALKBH7] | 2.63 ± 0.21 | 2.2 ± 0.6
44 | LQKLLSGRSREELDELTGEVAGGG [FEM1A] | 4.64 ± 0.19 | 4.71 ± 0.2

— the supplement of paper PMC10567573
